One may read the Kd as the constant that tells how readily two partners part at equilibrium.

Data on three molecules can be found in paper PMC11555651 (Biochemical Journal, 2024).

In test [1] the target is N-myc peptide 47-66 (Homo sapiens) (UniProt P04198). To be noted: cited from earlier work.
For test [2], the target named is T1, Aurora-A kinase domain 122–403 C290A,C393A (UniProt O14965 122-403, C290A | C393A).
T1 construct: Aurora-A Ser/Thr kinase, kinase domain residues 122-403 with C290A and C393A; also called Aurora-A 122–403, C290A, C393A
T1 sequence (looked up): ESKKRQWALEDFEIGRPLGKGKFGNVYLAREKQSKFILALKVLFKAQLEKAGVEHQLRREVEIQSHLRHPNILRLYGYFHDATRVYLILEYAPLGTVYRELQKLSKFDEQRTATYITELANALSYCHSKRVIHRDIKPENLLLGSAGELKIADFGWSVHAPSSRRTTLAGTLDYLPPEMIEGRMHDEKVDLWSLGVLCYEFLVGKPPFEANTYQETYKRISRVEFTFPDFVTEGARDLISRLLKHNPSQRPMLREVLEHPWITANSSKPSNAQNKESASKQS
In words: NMR titration; 1H-15N HSQC of 15N-labelled N-myc constructs (150-315 uM); unlabelled Aurora-A kinase domain (305-400 uM stock) added up to [N-myc]:[Aurora-A] 1:1.4; 20 mM (K/H)3PO4 pH 6.5, 150 mM NaCl, 2 mM beta-mercaptoethanol, 1% glycerol, 5 mM MgCl2, 5 mM ADP; 25°C stated for N-myc TAD. Conditions: both partners purified.

As to Fbxw7–Skp1 (from UniProt Q969H0), the Kd in test [1] was below 10 nM.

B1: N-myc_(64–137) (domain or fragment)
chain: GAMGSRGFAEHSSEPPSWVTEMLLENELWGSPAEEDAFGLGGLGGLTPNPVILQDCMWSGFSAREKLERAVSEKLQHG
notes: 15N-labelled for the NMR titration; also called C-terminal truncation of the TAD; not shown: His-NusA, N-terminal, cleaved
Turning to B1, the binding result in test [2] is reported as “binds”.

B2: N-myc_(1–137) TAD (domain or fragment)
chain: GAMMPSCSTSTMPGMICKNPDLEFDSLQPCFYPDEDDFYFGGPDSTPPGEDIWKKFELLPTPPLSPSRGFAEHSSEPPSWVTEMLLENELWGSPAEEDAFGLGGLGGLTPNPVILQDCMWSGFSAREKLERAVSEKLQHG
notes: whole N-myc is said to have 464 residues; 15N-labelled for the NMR titration; also called N-myc TAD; not shown: His-NusA, N-terminal, cleaved
B2: the binding result in test [2] is given as “binds”.
